Tests used:
[1] = target: actin filaments (F-actin) polymerised from rabbit muscle actin (rabbit) (UniProt P68135); assay: single-molecule TIRF binding kinetics (dwell times); as a1, in the presence of 200 nM HMM
[2] = target: actin filaments (F-actin) polymerised from rabbit muscle actin (rabbit) (UniProt P68135); assay: single-molecule TIRF binding kinetics (dwell times); dual colour with 10 nM Atto-488-cofilin and Alexa-555-utrn (0.05–0.1 nM), 450 ms per frame; events near (<30 nm) a cofilin binding event; only τ1 fitted
[3] = target: actin filaments (F-actin) polymerised from rabbit muscle actin (rabbit) (UniProt P68135); assay: single-molecule TIRF binding kinetics (dwell times); actin filaments tethered to a PEG/biotin-PEG coverslip by streptavidin and biotin-phalloidin; labelled binding domain in solution at ~0.05–0.1 nM; 25 mM imidazole, 25 mM KCl, 4 mM MgCl2, 1 mM EGTA, 1 mM DTT, pH 7.4, 10 µg/mL beta casein; double exponential fit of the CDF, bleaching corrected
[4] = target: actin filaments (F-actin) polymerised from rabbit muscle actin (rabbit) (UniProt P68135); assay: single-molecule TIRF binding kinetics (dwell times); dual colour with 10 nM Atto-488-cofilin and Alexa-555-utrn (0.05–0.1 nM), 450 ms per frame; events far (>30 nm) from a cofilin binding event
[5] = target: actin filaments (F-actin) polymerised from rabbit muscle actin (rabbit) (UniProt P68135); assay: single-molecule TIRF binding kinetics (dwell times); as a1, in the presence of 200 nM drebrin 1–300
[6] = target: actin filaments (F-actin) polymerised from rabbit muscle actin (rabbit) (UniProt P68135); assay: single-molecule TIRF binding kinetics (on-rate); tethered actin filaments; frequency of binding events for a range of concentrations of actin-binding domain, linear regression of frequency against concentration
[7] = target: actin filaments (F-actin) polymerised from rabbit muscle actin (rabbit) (UniProt P68135); assay: single-molecule TIRF binding kinetics (dwell times); as a1, with 1 µM phalloidin added after the filaments had been tethered
[8] = target: actin filaments (F-actin) polymerised from rabbit muscle actin (rabbit) (UniProt P68135); assay: single-molecule TIRF binding kinetics (dwell times); as a1, with 1 µM jasplakinolide added after the filaments had been tethered
[9] = target: actin filaments (F-actin) polymerised from rabbit muscle actin (rabbit) (UniProt P68135); assay: single-molecule TIRF binding kinetics (dwell times); as a1, actin filaments co-polymerized with 5 µM biotin-phalloidin

Work on “utrophin actin-binding domain Δ-nterm Q33A T36A (domain or fragment)” yielded a dwell time τ1 (first timescale) [1] of 0.4 s, a dwell time τ1 (first timescale) [2] of 0.57 s and an average dwell time (τav) [3] of 0.8 s. The dwell time τ1 (first timescale) [3] was 0.42 s, the ratio of the two dwell-time scales (τ2/τ1) [3] was 9.6 and the dwell time τ1 (first timescale) [4] was 0.44 s. The dwell time τ1 (first timescale) [5] was 0.34 s, the kon [6] was 2.1e+06 M⁻¹ s⁻¹ and the dwell time τ1 (first timescale) [7] was 0.49 s. It also gave a dwell time τ1 (first timescale) [8] of 0.47 s and a dwell time τ1 (first timescale) [9] of 0.41 s.

Reference: paper PMC7688639
